How the values were obtained:
[1] = Sialyltransferase activity in E. coli homogenate (crude enzyme solution), transfer of 14C-NeuAc from CMP-NeuAc to lactose; format: biochemical; settings: lactose acceptor; for Radioactivity (cpm) Round 1 / Radioactivity (cpm) Round 2 / Radioactivity (cpm) Average: JT-ISH-467 gene clones, 25° C., reaction time 15 hours; for Radioactivity (cpm) Average: average of duplicate; for Sialyltransferase activity in crude enzyme solution (in words): CMP-14C-NeuAc donor
Procedure: Sialyltransferase activity was measured as described in J. Biochem., 120, pp. 104-110 (1996) (which is hereby incorporated by reference in its entirety). More specifically, the enzymatic reaction was accomplished by using CMP-NeuAc (70 nmol, containing 25000 cpm CMP-NeuAc in which NeuAc was labeled with ^14C, 356 cpm/nmol; NeuAc represents N-acetylneuraminic acid) as a glycosyl donor substrate, lactose (1.25 μmol) as a glycosyl acceptor substrate, NaCl added to give a concentration of 0.5 M, and the enzyme-containing reaction solution (30 μl) prepared as described above. The enzymatic reaction was carried out at 25° C. for 10 to 30 minutes. After completion of the reaction, 1.97 ml of 5 mM phosphate buffer (pH 6.8) was added to the reaction solution, which was then applied to a Dowex 1×8 (PO4^3− form, 0.2×2 cm, BIO-RAD) column. The radioactivity was measured for the reaction product, i.e., sialyllactose contained in the eluate (0 to 2 ml) from this column to calculate the enzyme activity.
An induction experiment of protein expression was performed on the two 467-N0C0 clones and the three 467-N2C0 clones obtained in (4) above. A single colony of E. coli TB1 having the expression vector pTrc99A carrying each clone was inoculated into LB medium (5 ml) containing an antibiotic, ampicillin (final concentration 100 μg/mL), and pre-cultured at 30° C. to about A600=0.5, followed by addition of IPTG (isopropyl-β-D(−)-thiogalactopyranoside, Wako Pure Chemical Industries, Ltd. Japan) at a final concentration of 1 mM. After culturing with shaking at 30° C. for an additional 4 hours, the cells in 2 ml culture solution were collected by centrifugation. These cells were suspended in 200 μl of 20 mM BisTris buffer (pH 7.0) containing 0.336% Triton X-100 and 0.5 M sodium chloride, and ultrasonically homogenized under ice cooling. The resulting homogenate was defined as a crude enzyme solution and provided for activity measurement. The reaction was carried out in duplicate, and the reaction composition was the same as shown in Example 1, except that the reaction time was set to 15 hours.
In the same manner as shown in Example 5(5), an induction experiment of protein expression was performed on 2 clones, i.e., the first clone of ISH224-N0C0 and the first clone of ISH224-N1C0 to measure their enzyme activity.
In the same manner as shown in Example 5(5), an induction experiment of protein expression was performed on 3 clones, i.e., the first clone of FAJ-N0C0 as well as the first and second clones of FAJ-N1C0 to measure their enzyme activity.

[2] = Confirmation of α2,3 sialyltransferase activity of E. coli-expressed enzyme with pyridylaminated lactose, HPLC; format: biochemical; settings: pyridylaminated lactose 2.0 μM, CMP-sialic acid 5.7 μM, pH 6.0, 25° C., 6 hours
Procedure: Using the enzyme obtained in Example 2, the enzymatic reaction was carried out using a pyridylaminated sugar chain as a glycosyl acceptor substrate. The pyridylaminated sugar chain used for analysis was pyridylaminated lactose (Galβ1-4Glc-PA, Takara Bio Inc., Japan). The glycosyl acceptor substrate, CMP-NeuAc and the enzyme were dissolved at 2.0 μM, 5.7 μM and 20 mU/ml, respectively, in 25 μl of 20 mM cacodylate buffer (pH 6.0), and then reacted at 25° C. for 3 hours. After the reaction, the reaction solution was treated at 100° C. for 2 minutes to inactivate the enzyme, followed by HPLC to analyze the reaction product.
The HPLC system used was Shimadzu LC10A (Shimadzu Corporation, Japan) and the analytical column used was Takara PALPAK Type R (Takara Bio Inc., Japan). The column which had been equilibrated with 100 mM acetate-triethylamine (pH 5.0) containing 0.15% N-butanol was injected with the reaction solution diluted with Eluent A (100 mM acetate-triethylamine, pH 5.0). For elution of the pyridylaminated sugar chain, Eluent A (100 mM acetate-triethylamine, pH 5.0) and Eluent B (100 mM acetate-triethylamine containing 0.5% n-butanol, pH 5.0) were used to successively elute the pyridylaminated sugar chain with a linear gradient of 30% to 100% Eluent B (0 to 35 minutes) and then 100% Eluent B (35 to 50 minutes). The analysis was performed under the following conditions: flow rate: 1 ml/min, column temperature: 40° C., detection: fluorescence (Ex: 320 nm, Em: 400 nm).
As in the case of Example 3, pyridylaminated lactose (Galβ1-4Glc-PA, PA-Sugar Chain 026, Takara Bio Inc., Japan) was used as a glycosyl acceptor to carry out the enzymatic reaction. After the reaction, the reaction solution was heated at 95° C. for 5 minutes to inactivate the enzyme, followed by HPLC analysis. It should be noted that the enzymatic reaction was accomplished at 25° C. for 6 hours using pyridylaminated lactose and CMP-sialic acid dissolved at 2.0 μM and 5.7 μM, respectively, in 25 μl of 20 mM cacodylate buffer (pH 6.0) (Reaction 1). On the other hand, a control experiment (Reaction 2) was carried out using a reaction solution free from CMP-sialic acid. Further, to clarify the retention time of standards, the crude enzyme solution was inactivated by thermal treatment (95° C., 5 minutes) and tested in the presence of pyridylaminated lactose and pyridylaminated α2,3-sialyllactose (pyridylaminated 3′-sialyllactose) (Neu5Acα2-3Galβ1-4Glc-PA, PA-Sugar Chain 029, Takara Bio Inc., Japan).

Molecule | Radioactivity (cpm) Round 1 [1] [cpm] | Radioactivity (cpm) Round 2 [1] [cpm] | Radioactivity (cpm) Average [1] [cpm] | Sialyltransferase activity in crude enzyme solution (in words) [1] | α2,3 sialyltransferase activity (formation of pyridylaminated α2,3-sialyllactose) [2]
ISH467-N0C0 first clone: E. coli-expressed full-length JT-ISH-467 sialyltransferase with Asn to Ser change at position 190 of SEQ ID NO: 2 (protein, listed as Photobacterium phosphoreum) MFVFCKKIFFLIFISLMILGGCNSDSKHNNSDGNITKNKTIEVYVDRATLPTIQQMTQIINENSNNKKLISWSRYPINDETLLESINGSFFKNRPELIKSLDSMILTNEIKKVIINGNTLWAVDVVNIIKSIEALGKKTEIELNFYDDGSAEYVRLYDFSRLPESEQEYKISLSKDNIQSSINGTQPFDSSIENIYGFSQLYPTTYHMLRADIFETNLPLTSLKRVISNNIKQMKWDYFTTFNSQQKNKFYNFTGFNPEKIKEQYKASPHENFIFIGTNSGTATAEQQIDILTEAKKPDSPIITNSIQGLDLFFKGHPSATYNQQIIDAHNMIEIYNKIPFEALIMTDALPDAVGGMGSSVFFSLPNTVENKFIFYKSDTDIENNALIQVMIELNIVNRNDVKLISDLQ | 8496 | 7486 | 7991 | sialyltransferase activity in both crude enzyme solutions | found to have α2,3 sialyltransferase activity
ISH467-N2C0 first clone: JT-ISH-467 sialyltransferase lacking signal peptide region, Phe replaced by Ser at position 159 (protein, listed as Photobacterium phosphoreum, lacks signal peptide; cited entry is nucleotide; CDS (1)..(1230) /gene=“467-23ST” /product=“Beta-galactoside- alpha 2,3-sialyltransferase”) MFVFCKKIFFLIFISLMILGGCNSDSKHNNSDGNITKNKTIEVYVDRATLPTIQQMTQIINENSNNKKLISWSRYPINDETLLESINGSFFKNRPELIKSLDSMILTNEIKKVIINGNTLWAVDVVNIIKSIEALGKKTEIELNFYDDGSAEYVRLYDSSRLPESEQEYKISLSKDNIQSSINGTQPFDNSIENIYGFSQLYPTTYHMLRADIFETNLPLTSLKRVISNNIKQMKWDYFTTFNSQQKNKFYNFTGFNPEKIKEQYKASPHENFIFIGTNSGTATAEQQIDILTEAKKPDSPIITNSIQGLDLFFKGHPSATYNQQIIDAHNMIEIYNKIPFEALIMTDALPDAVGGMGSSVFFSLPNTVENKFIFYKSDTDIENNALIQVMIELNIVNRNDVKLISDLQ | 10514 | 9033 | 9773.5 | sialyltransferase activity was also observed | had α2,3 sialyltransferase activity
ISH467-N0C0 second clone: E. coli-expressed full-length JT-ISH-467 sialyltransferase, nucleotide sequence of SEQ ID NO: 1, no change (protein, listed as Photobacterium phosphoreum, CDS (1)..(1230) /gene=“467-23ST” /product=“Beta-galactoside- alpha 2,3-sialyltransferase”) MFVFCKKIFFLIFISLMILGGCNSDSKHNNSDGNITKNKTIEVYVDRATLPTIQQMTQIINENSNNKKLISWSRYPINDETLLESINGSFFKNRPELIKSLDSMILTNEIKKVIINGNTLWAVDVVNIIKSIEALGKKTEIELNFYDDGSAEYVRLYDFSRLPESEQEYKISLSKDNIQSSINGTQPFDNSIENIYGFSQLYPTTYHMLRADIFETNLPLTSLKRVISNNIKQMKWDYFTTFNSQQKNKFYNFTGFNPEKIKEQYKASPHENFIFIGTNSGTATAEQQIDILTEAKKPDSPIITNSIQGLDLFFKGHPSATYNQQIIDAHNMIEIYNKIPFEALIMTDALPDAVGGMGSSVFFSLPNTVENKFIFYKSDTDIENNALIQVMIELNIVNRNDVKLISDLQ | 7097 | 7809 | 7453 | sialyltransferase activity in both crude enzyme solutions | found to have α2,3 sialyltransferase activity
